Source: patent US20240390512A1, “METHODS OF TREATING CHEMOTHERAPY-RESISTANT CANCER WITH AN ANTIBODY-DRUG CONJUGATE” (DAIICHI SANKYO COMPANY, LIMITED, priority 2021, published 2024)
Changes are numbered by the printed parent chain.

T1: human CDH6 (full-length and EC domain deletion mutants) (Homo sapiens, UniProt P55285)
T1 construct: each one of the five EC domains could be deleted from full-length human CDH6; 3xFLAG (deletion mutants only, from the vector p3×FLAG-CMV-9); expressed in transfected cells; host or cells: 293α cells
T1 sequence (P55285 160-790): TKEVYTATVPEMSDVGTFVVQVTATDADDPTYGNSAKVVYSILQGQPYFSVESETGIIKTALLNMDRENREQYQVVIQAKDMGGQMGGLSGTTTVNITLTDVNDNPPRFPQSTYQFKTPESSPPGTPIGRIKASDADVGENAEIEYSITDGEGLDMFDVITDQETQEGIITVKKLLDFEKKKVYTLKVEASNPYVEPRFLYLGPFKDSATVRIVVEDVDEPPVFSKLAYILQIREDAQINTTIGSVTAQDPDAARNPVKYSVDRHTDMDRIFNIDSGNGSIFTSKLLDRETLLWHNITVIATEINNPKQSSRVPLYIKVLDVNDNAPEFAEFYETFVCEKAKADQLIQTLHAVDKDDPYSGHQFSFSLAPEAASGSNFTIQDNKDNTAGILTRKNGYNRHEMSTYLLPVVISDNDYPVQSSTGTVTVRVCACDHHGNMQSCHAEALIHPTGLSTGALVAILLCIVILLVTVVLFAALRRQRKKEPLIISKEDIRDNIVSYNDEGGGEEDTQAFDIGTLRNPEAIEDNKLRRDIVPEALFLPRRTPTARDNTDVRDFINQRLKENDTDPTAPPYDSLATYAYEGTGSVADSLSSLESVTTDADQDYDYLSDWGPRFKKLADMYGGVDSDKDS

T2: human CDH6 (full-length and EC domain deletion mutants) (Homo sapiens, UniProt P55285, DEL160-268)
T2 construct: each one of the five EC domains could be deleted from full-length human CDH6; 3xFLAG (deletion mutants only, from the vector p3×FLAG-CMV-9); expressed in transfected cells; host or cells: 293α cells
T2 sequence (P55285 with tags, fused parts or gaps DEL160-268): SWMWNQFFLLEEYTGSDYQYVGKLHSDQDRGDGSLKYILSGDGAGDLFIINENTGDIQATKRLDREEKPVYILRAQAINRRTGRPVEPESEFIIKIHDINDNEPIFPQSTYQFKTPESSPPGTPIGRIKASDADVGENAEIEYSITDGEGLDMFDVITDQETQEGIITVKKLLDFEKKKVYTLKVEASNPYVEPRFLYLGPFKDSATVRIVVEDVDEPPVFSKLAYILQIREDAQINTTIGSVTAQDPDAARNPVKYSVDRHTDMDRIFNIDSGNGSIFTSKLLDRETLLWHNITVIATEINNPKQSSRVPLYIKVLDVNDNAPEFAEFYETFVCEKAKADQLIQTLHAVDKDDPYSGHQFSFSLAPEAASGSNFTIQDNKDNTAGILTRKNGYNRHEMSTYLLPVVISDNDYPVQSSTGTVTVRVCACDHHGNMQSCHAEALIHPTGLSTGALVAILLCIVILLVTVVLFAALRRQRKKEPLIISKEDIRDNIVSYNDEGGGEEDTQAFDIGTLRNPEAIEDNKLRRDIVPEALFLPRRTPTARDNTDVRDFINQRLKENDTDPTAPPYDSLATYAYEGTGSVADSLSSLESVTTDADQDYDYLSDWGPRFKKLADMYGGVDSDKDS

B1: rG056: rat anti-human CDH6 monoclonal antibody produced by hybridoma rG056; variable regions SEQ ID NO: 30 and 35 (antibody, listed as Rattus norvegicus, V domains shown)
VL: DVQMTQSPSSLAASPGESVSISCRATKSIGIYLAWYQQKPGKTFKLLIYSGSTLQSGTPSRFSGSGSGTDFTLTIRSLEPEDFGLYFCQQFYENPFTFGSGTKLEIRRA
VH: EVQLQESGPGLVKPSQSLSLTCSVTDYSITTYFWGWIRKFPGNKMEWMGYMSYRGGTSYNPSLKSRISITRDTSKNQFFLQLNSVTTEDTATYYCARCPNYGGHSLVFDYWGQGVMVTVSS
B2: rG055: rat anti-human CDH6 monoclonal antibody produced by hybridoma rG055; variable regions SEQ ID NO: 20 and 25 (antibody, listed as Rattus norvegicus, V domains shown)
VL: DVQMTHSPSYLAASPGESVSISCKTSKNISNYLVWYQQKPGEAYKLLIYSGSTLQSGTPSRFSGSGSGTDFTLTIRSLEPEDFGLYFCQQYYEKPFTFGSGTKLEIKRA
VH: EVQLQESGPGLVRPSQSLSLSCSVTDYSITSNYWGWIRRFPGNKMEWMGYITYSGYTSYNPSLQSRISITRDTSKNQFFLQLNSVTAEDTATYYCARSINHGGYSYVVDAWGPGASVTVSS
B3: rG061: rat anti-human CDH6 monoclonal antibody produced by hybridoma rG061; variable regions SEQ ID NO: 40 and 45 (antibody, listed as Rattus norvegicus, V domains shown)
VL: B2 VL with H6Q, T25A, S26T, N28S, V34A, L46V, F87S, F96L
VH: EVQLQESGPGLVKPSQSLSLTCSVTGYSITTYYWGWIRKFPGNKMEWMGYISYSGRTSYNPSLKSRMSITRDASKNQFFLQLNSVTTDDTATYYCARSPINHGGYWYFDFWGPGTMVTVSS
B4: rG019: rat anti-human CDH6 monoclonal antibody produced by hybridoma rG019; variable regions SEQ ID NO: 10 and 15 (antibody, listed as Rattus norvegicus, V domains shown)
VL: DIQMTQSPSLLSASVGDRVTLNCKASQNIYKNLAWYQQKLGEGPKLLIYDANTLQTGIPSRFSGSGSGSDFTLTISSLQPEDVATYFCQQYYSGWAFGGVTNLELKRA
VH: QVQLQQSGAELVKPGSSVKISCKASGYTFTRNFMHWIKQQPGNGLEWIGWIYCGDGETEYNQKFNGKATLTADRSSSTAYMELSRLTSEDSAVYFCARGVYGGFAGGYFDFWGQGVMVTVSS

The molecules below were run against T1, human CDH6 (full-length and EC domain deletion mutants) (assay: Epitope analysis of rat anti-CDH6 antibody by flow cytometry using domain deletion mutants). Conditions: flow cytometry; transfected 293α cells; antibody 20 nM.
Type: binding
Excerpt: (§1) The full-length extracellular region of human CDH6 has five extracellular domains, EC1 (SEQ ID NO: 2), EC2 (SEQ ID NO: 3), EC3 (SEQ ID NO: 4), EC4 (SEQ ID NO: 5), and EC5 (SEQ ID NO: 6). A gene to be expressed such that each one of the five EC domains could be deleted from full-length human CDH6 was synthesized by GeneArt, and incorporated into p3×FLAG-CMV-9 vectors for mammalian expression (Sigma-Aldrich Co. LLC) according to a method known to a person skilled in the art in order to produce an expression vector for each domain deletion mutant lacking any one of EC1 to EC5.
(§2) The epitopes to which the rat anti-human CDH6 antibodies bound were identified by flow cytometry analysis using a 293α cell line transfected with each EC domain deletion vector. Using Lipofectamine 2000 (Thermo Fisher Scientific Inc.), each domain deletion mutant expression vector produced in Reference Example 2)-2-1, or pcDNA3.1-hCDH6 for the expression of full-length human CDH6 was transiently introduced into a 293α cell line, which was a cell line derived from HEK293 cells by stable transfection with integrin αv and integrin […] expression vectors. The cells were cultured overnight under conditions of 37° C. and 5% CO2, and thereafter, a cell suspension was prepared. The suspension of the transfected 293α cells was centrifuged, and a supernatant was then removed. Thereafter, the cells were suspended by the addition of each of the 4 rat anti-CDH6 monoclonal antibodies (clone Nos: rG019, rG055, rG056 and rG061), which had been prepared in Reference Example 1)-7, or rat IgG control (R&D Systems, Inc.) (final concentration: 20 nM). The cells were left standing at 4° C. for 1 hour. The cells were washed twice with PBS supplemented with 5% FBS, and then suspended by the addition of Anti-Rat IgG (whole molecule)-FITC antibody produced in rabbit (Sigma-Aldrich Co. LLC) that had been 50-fold diluted with PBS supplemented with 5% FBS. The cells were left standing at 4° C. for 1 hour. The cells were washed twice with PBS supplemented with 5% FBS, followed by detection using a flow cytometer (Canto II; BD Biosciences). The data was analyzed using FlowJo (Tree Star, Inc.). In the histograms of FIGS. 2-1 to 2-6, the abscissa depicts FITC fluorescence intensity indicating the amount of the antibody bound, and the ordinate depicts cell count. […] Fluorescence intensity is enhanced when the antibody binds to full-length hCDH6 or each EC domain deletion mutant on the surface of cells. The rat IgG control binds to none of the transfected cells.

Binding to EC1 deletion mutant, bind:
B1
B2
B3
B4

The molecules below were run against T2, human CDH6 (full-length and EC domain deletion mutants) in the same assay as above. Conditions: flow cytometry; transfected 293α cells; antibody 20 nM.
Type: binding
Excerpt: as §1, §2

Binding to EC2 deletion mutant, bind:
B1
B2
B3
B4
